Results from paper PMC9352680, “A comprehensive thermodynamic model for RNA binding by the Saccharomyces cerevisiae Pumilio protein PUF4”.

B1: Id_ii_S3_P3E.3_K3.2_C3.2_H3.2_A3.1_F3.1_T3.2 (ssRNA)
RNA: ACAAACCUUAUAUAUAUAACAAAC
B2: Id_ii_S3_P3E.4_K3.3_C3.2_[C-2G]_[T-1C]_H3.3_A3.1_F3.1_T3.2_[T9C] (ssRNA)
RNA: ACAAACGCACACUAUACAACAAAC
B3: Id_ii_S3_P3E.3_K3.2_C3.2_[T-1G]_H3.2_A3.1_F3.1_T3.2_[T9A]_[A10G] (ssRNA)
RNA: ACAAACCGUAUAUAUAAGACAAAC
B4: Ia_S1_P5E.1_K5.1_C5.1_H5.1_A5.1_[T5G]_F5.1_T5.1 (ssRNA)
RNA: UCUCUUUGUAGUAUUAUCUCUU
B5: Id_ii_S3_P3E.4_K3.3_C3.2_[C-2T]_[T-1G]_H3.3_A3.1_F3.1_T3.2_[A10T] (ssRNA)
RNA: ACAAACUGACACUAUAUUACAAAC
B6: Id_ii_S3_P3E.3_K3.2_C3.2_H3.2_A3.1_F3.1_T3.2_[T9C]_[A10C] (ssRNA)
RNA: ACAAACCUUAUAUAUACCACAAAC
B7: Id_ii_S3_P3E.3_K3.2_C3.2_[T-1G]_H3.2_A3.1_F3.1_T3.2_[T9A] (ssRNA)
RNA: ACAAACCGUAUAUAUAAAACAAAC
B8: Id_ii_S3_P3E.3_K3.2_C3.2_H3.2_A3.1_F3.1_T3.2_[T9G]_[A10C] (ssRNA)
RNA: ACAAACCUUAUAUAUAGCACAAAC
B9: Id_ii_S3_P3E.3_K3.2_C3.2_[C-2A]_H3.2_A3.1_F3.1_T3.2_[T9A]_[A10C] (ssRNA)
RNA: ACAAACAUUAUAUAUAACACAAAC
B10: Id_ii_S3_P3E.4_K3.3_C3.2_[C-2G]_[T-1A]_H3.3_A3.1_F3.1_T3.2_[A10C] (ssRNA)
RNA: ACAAACGAACACUAUAUCACAAAC
B11: Id_ii_S3_P3E.4_K3.3_C3.2_[C-2G]_[T-1C]_H3.3_A3.1_F3.1_T3.2_[T9A]_[A10G] (ssRNA)
RNA: ACAAACGCACACUAUAAGACAAAC
B12: Id_ii_S3_P3E.4_K3.3_C3.2_[C-2T]_[T-1G]_H3.3_A3.1_F3.1_T3.2_[T9A]_[A10G] (ssRNA)
RNA: ACAAACUGACACUAUAAGACAAAC
B13: Ib_S1_P5E.1_K5.1_C5.1_H5.1_A5.1_[A7G]_F5.1_[T9A]_T5.1 (ssRNA)
RNA: UCUCUUUGUAUUGUAAUCUCUU
B14: Ic_S1_P5E.1_K5.1_C5.1_H5.1_A5.1_[T5G]_F5.1_[A10G]_T5.1 (ssRNA)
RNA: UCUCUUUGUAGUAUUGUCUCUU
B15: Id_ii_S3_P3E.4_K3.3_C3.2_[C-2G]_[T-1G]_H3.3_A3.1_F3.1_T3.2_[A10T] (ssRNA)
RNA: ACAAACGGACACUAUAUUACAAAC
B16: Id_ii_S3_P3E.3_K3.2_C3.2_[T-1G]_H3.2_A3.1_F3.1_T3.2_[T9C]_[A10C] (ssRNA)
RNA: ACAAACCGUAUAUAUACCACAAAC
B17: Id_ii_S3_P3E.3_K3.2_C3.2_H3.2_A3.1_F3.1_T3.2_[A10C] (ssRNA)
RNA: ACAAACCUUAUAUAUAUCACAAAC
B18: Id_ii_S3_P3E.4_K3.3_C3.2_[C-2G]_H3.3_A3.1_F3.1_T3.2_[T9A]_[A10C] (ssRNA)
RNA: ACAAACGUACACUAUAACACAAAC
B19: Id_ii_S3_P3E.3_K3.2_C3.2_H3.2_A3.1_F3.1_T3.2_[T9A]_[A10C] (ssRNA)
RNA: ACAAACCUUAUAUAUAACACAAAC
B20: Id_ii_S3_P3E.3_K3.2_C3.2_[C-2A]_[T-1A]_H3.2_A3.1_F3.1_T3.2_[T9A]_[A10G] (ssRNA)
RNA: ACAAACAAUAUAUAUAAGACAAAC
B21: Id_ii_S3_P3E.3_K3.2_C3.2_[C-2A]_[T-1A]_H3.2_A3.1_F3.1_T3.2_[A10T] (ssRNA)
RNA: ACAAACAAUAUAUAUAUUACAAAC
B22: Id_ii_S3_P3E.3_K3.2_C3.2_[C-2A]_H3.2_A3.1_F3.1_T3.2 (ssRNA)
RNA: ACAAACAUUAUAUAUAUAACAAAC
B23: Id_ii_S3_P3E.3_K3.2_C3.2_[T-1C]_H3.2_A3.1_F3.1_T3.2_[A10T] (ssRNA)
RNA: ACAAACCCUAUAUAUAUUACAAAC
B24: Id_ii_S3_P3E.4_K3.3_C3.2_[C-2G]_[T-1C]_H3.3_A3.1_F3.1_T3.2_[T9G]_[A10G] (ssRNA)
RNA: ACAAACGCACACUAUAGGACAAAC
B25: Id_ii_S3_P3E.4_K3.3_C3.2_[C-2G]_[T-1A]_H3.3_A3.1_F3.1_T3.2_[T9G]_[A10C] (ssRNA)
RNA: ACAAACGAACACUAUAGCACAAAC
B26: Id_ii_S3_P3E.3_K3.2_C3.2_[T-1C]_H3.2_A3.1_F3.1_T3.2_[T9C]_[A10C] (ssRNA)
RNA: ACAAACCCUAUAUAUACCACAAAC
B27: Id_ii_S3_P3E.3_K3.2_C3.2_[T-1A]_H3.2_A3.1_F3.1_T3.2_[T9G]_[A10C] (ssRNA)
RNA: ACAAACCAUAUAUAUAGCACAAAC
B28: Id_ii_S3_P3E.4_K3.3_C3.2_[C-2G]_[T-1A]_H3.3_A3.1_F3.1_T3.2_[T9C] (ssRNA)
RNA: ACAAACGAACACUAUACAACAAAC
B29: Id_ii_S3_P3E.4_K3.3_C3.2_[C-2T]_[T-1C]_H3.3_A3.1_F3.1_T3.2_[T9G]_[A10C] (ssRNA)
RNA: ACAAACUCACACUAUAGCACAAAC
B30: Id_ii_S3_P3E.4_K3.3_C3.2_[C-2T]_[T-1C]_H3.3_A3.1_F3.1_T3.2_[A10T] (ssRNA)
RNA: ACAAACUCACACUAUAUUACAAAC
B31: Id_ii_S3_P3E.3_K3.2_C3.2_H3.2_A3.1_F3.1_T3.2_[A10G] (ssRNA)
RNA: ACAAACCUUAUAUAUAUGACAAAC
B32: Ib_S1_P5E.1_K5.1_C5.1_H5.1_A5.1_[T5C]_F5.1_[A10C]_T5.1 (ssRNA)
RNA: UCUCUUUGUACUAUUCUCUCUU

Target: T1, PUF4 RNA-binding domain (Saccharomyces cerevisiae, UniProt P25339 537-888)
T1 sequence: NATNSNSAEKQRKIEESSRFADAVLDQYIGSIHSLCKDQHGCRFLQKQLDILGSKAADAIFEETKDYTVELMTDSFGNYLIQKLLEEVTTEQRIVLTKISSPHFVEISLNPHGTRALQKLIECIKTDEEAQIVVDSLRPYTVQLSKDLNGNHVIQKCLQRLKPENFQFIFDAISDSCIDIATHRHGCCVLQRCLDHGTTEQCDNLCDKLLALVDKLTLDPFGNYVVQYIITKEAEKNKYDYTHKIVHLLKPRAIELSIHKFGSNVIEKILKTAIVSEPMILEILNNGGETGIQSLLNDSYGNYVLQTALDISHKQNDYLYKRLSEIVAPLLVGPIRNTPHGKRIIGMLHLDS
Assay: Mg; RNA-MaP; 20 mM Na-HEPES pH 7.4, 30 mM KOAc, 0.75 mM MgCl2, 0.1% Tween-20, 5% glycerol, 0.1 mg/mL BSA, 2 mM DTT; 25 C; 0.0125-409.6 nM protein
Conditions: tags: N-His6-TEV cleaved; C-SNAP kept, Cy3B-labelled; label: tethered on chip by stalled RNA polymerase

First: B1
Second: B2
The Kd of the first is lower: 500 nM for the first, over 2300 nM for the second.

Compared with B3, B4 is 27-fold lower in Kd: 796 nM for the first, 30 nM for the second. The second binds more tightly here.

First: B5
Second: B6
The Kd of the first is 1.6-fold higher: 1340 nM for the first, 845 nM for the second.

Going from B7 to B8, the Kd falls from 697 nM to 144 nM (4.8-fold). The second binds more tightly here.

Compared with B9, B10 is higher in Kd: 708 nM for the first, over 2300 nM for the second. The first binds more tightly here.

B11 and B12 cannot be ordered by Kd: over 2300 nM for the first, over 2300 nM for the second.

Going from B13 to B14, the Kd rises from 10.6 nM to 81.1 nM (7.7-fold). The first binds more tightly here.

B15 and B16 are within 1.5-fold of each other in Kd: 1380 nM for the first, 1540 nM for the second.

Compared with B17, B18 is 4-fold lower in Kd: 396 nM for the first, 100 nM for the second. The second binds more tightly here.

Compared with B19, B20 is 2.1-fold higher in Kd: 513 nM for the first, 1090 nM for the second.

Going from B21 to B22, the Kd rises from 94 nM to 462 nM (4.9-fold). The first binds more tightly here.

Going from B23 to B24, the Kd rises from 32.7 nM to over 2300 nM.

Going from B25 to B26, the Kd falls from over 2300 nM to 614 nM. The second binds more tightly here.

First: B27
Second: B28
The Kd of the first is lower: 328 nM for the first, over 2300 nM for the second.

Compared with B29, B30 is lower in Kd: over 2300 nM for the first, 2080 nM for the second. The second binds more tightly here.

First: B31
Second: B32
The Kd of the first is 51-fold higher: 632 nM for the first, 12.5 nM for the second. The second binds more tightly here.
